Data from the supplement of paper PMC9170038.

System: MS2 coat protein
Assay: apparent KD of MS2 coat protein; designed switch direction (-1 OFF switch, 1 ON switch): -1; higher = weaker reporter binding
How it was run: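 Stalled E. coli RNA polymerase transcribed designed RNA switches on Illumina chips, which were then titrated with SNAP-549-labelled MS2 coat protein, doubling from 0.7 or 1.5 nM to 3 µM. Steps lasted from 0.8–1.5 h at the lowest concentration to 10–20 min at the highest. The apparent KD is each design's median over clusters of curve-fitted normalised fluorescence.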

[1] = Eterna round: R95, input ligand: FMN 200 uM
[2] = Eterna round: R95, input ligand: microRNA oligo, concentration not stated
[3] = Eterna round: R95, input ligand: none
[4] = input ligand: microRNA oligo, concentration not stated

Sequence | apparent KD of MS2 coat protein [2] | apparent KD of MS2 coat protein (input ligand: FMN 200 uM) | apparent KD of MS2 coat protein (input ligand: none) | further results
AAAAAGAGAGGAUAUACAUGAGGAUCACCCAUGUGAGGGCACCGCGGGCGCGGGACCCGUAGAAGGCUCAAAAA [Exc;s3-I] (puzzle: Exclusion 3) | 14.7 nM | – | – | apparent KD of MS2 coat protein [1]: 16.5 nM; apparent KD of MS2 coat protein [3]: 20.5 nM
UAUAUAUAGUAAGGAUAUGUAUUAAUGUUAUAAACAGAAGGUACUGACAUGAGGAUCACCCAUGUUUUAGUGUGGGCAUGUAGA [JMF's solution 78] (Eterna round: R96, puzzle: Exclusion NG 1) | – | – | – | apparent KD of MS2 coat protein [4]: 73.8 nM
AGUGUGUGGCAGGAUAUGCGAUUUGUAAGUAUUGCAGAAGGGUCUACAUGAGGAUCACCCAUGUGUGCGGUUGA [Ex6 #25] (Eterna round: R97, puzzle: Exclusion 6) | – | 947 nM | 469 nM | –
UUAUAAAGUGUGAGGAUAUGCUGGUCCAUAGAUCAGCAGAAGGCACAUGAGGAUCACCCAUGUAAUAUAUUUUU [Mat - Exclusion 4 - JL Mod - D43] (puzzle: Brourd's mod of Exclusion 4) | 27.2 nM | – | – | –
AAAUUGGUAGAGGAUAUUGUACAGGAAACGGUGCGAGAAGGUUGCACAUGAGGAUCACCCAUGUUAAGUUGCGA [EX6 #46] (Eterna round: R97, puzzle: Exclusion 6) | – | 39.9 nM | 25.7 nM | –
CGUUGAUGAGGAUAUCGAUGUUAGUACAUGAGGAUCACCCAUGUUAUCCAAGUGUCGUUUCGAGAAGGUAUUGGAC [LRO-Ex5-20] (puzzle: Exclusion 5) | 174 nM | – | – | –
UAUAUAUAGUAAGGAUAUGUAGUUAUUUUAUAAACAGAAGGUACUGACAUGAGGAUCACCCAUGUUUUAGUGUGGGCAUGUAGA [JMF's solution 6] (Eterna round: R96, puzzle: Exclusion NG 1) | – | – | – | apparent KD of MS2 coat protein [4]: 71.1 nM
AGGUAACAUGAGGAUCACCCAUGUCAGGAUAUCAUGAAGAGGAGAUUAGAGGAGAGGUUGAGAAGGGACUAUAU [Excluse me! 14 - Jieux - Exclusion 1] (puzzle: Exclusion 1) | 57.1 nM | – | – | –
CCAUCGUGUGUGAGGAUAUGCUGGUCCUUGGAUCAGCAGAAGGCACAUGAGGAUCACCCAUGUGAAUACGGUGG [JL bmx4 3.21] (puzzle: Brourd's mod of Exclusion 4) | 17.8 nM | – | – | –
AUGUACCGGUGAGGAUAUUUAUAAUAGAGCUUUAUGAUAUACAUGAGGAUCACCCAUGUUACUUUAAAGAAGGCAUCGGAUUAA [Mat - Exclusion NG 2 - Mod of JL - D91] (Eterna round: R96, puzzle: Exclusion NG 2) | – | 15.3 nM | 21.2 nM | apparent KD of MS2 coat protein [4]: 15.3 nM
AUAAUGUGAGGAUAUCAGUCGACUAGCUGCGGCUAGUCGACUGAGAAGGUACAUGAGGAUCACCCAUGUGGUUC [E4/11-B3] (Eterna round: R97, puzzle: Exclusion 4) | – | 904 nM | 434 nM | –
CUGCUGGAGCUUCGCUUUGGUCGUACAUGAGGAUCACCCAUGUAGGAUAUGGUAAAAUUCGCCUGCUAGAAGGAUAGAGUGGUC [salish99_ExNG3_r04_619] (Eterna round: R96, puzzle: Exclusion NG 3) | – | – | – | apparent KD of MS2 coat protein [4]: 80.1 nM
GGUCCACGAGGAUAUCGAUUAUAGUACAUGAGGAUCACCCAUGUUGUCCAGGUUUCGAUUCGAGAAGGCGUGGGUU [LRO-Ex5-02] (puzzle: Exclusion 5) | 51.8 nM | – | – | –
CUGAGGUAGCGGUCCUAUGACAUGAGGAUCACCCAUGUACCUUGCUUCGAGCUUAUUGCUCGUCUUAUGAUUCUCGG [Mat - Sensor v3 - turn-off var 1 - JL Mod - D33] (puzzle: Sensor v3, turn-off variant 1) | 714 nM | – | – | apparent KD of MS2 coat protein [1]: 551 nM; apparent KD of MS2 coat protein [3]: 613 nM
GUUUUCAGACGGAGAUCCUACAUGAGGAUCACCCAUGUCUCACUUGUUUUUUGCUCGUCUUAUCCUCCUCUGUUCUC [Elimod 30 - Jieux - Sensor, turn-off variant 1] (Eterna round: R97, puzzle: Sensor, turn-off variant 1) | – | 414 nM | 667 nM | –
GGUCAAGAACAGCUCCGCGCUGCCCUCGACCGCUCAUUUACAUGAGGAUCACCCAUGUUUUUUGCUUGUCUUGUUAC [Usvetive] (puzzle: Sensor v3, turn-off variant 2) | 91.8 nM | – | – | apparent KD of MS2 coat protein [1]: 16.9 nM; apparent KD of MS2 coat protein [3]: 16.5 nM
CCUCCACAUGAGGAUCACCCAUGUCAGGAUAUCGUGUGUUUUUUUUCGGCCGCGCGUGCGAGAAGGGACGUCUU (puzzle: Exclusion 1) | 19.1 nM | – | – | –

Sequence | apparent KD of MS2 coat protein [2] | apparent KD of MS2 coat protein (input ligand: FMN 200 uM) | apparent KD of MS2 coat protein (input ligand: none) | further results
AAAAAACAAGGAUAUACGCACGAGGAUUGUCUUAAUUUUUGACAUGAGGAUCACCCAUGUAGAAGGUGUUAAAA [JR_Exclusion2_Sub014] (puzzle: Exclusion 2) | 76.5 nM | – | – | –
GCACGGAAAUUCCAUAAAACCACAUGAGGAUCACCCAUGUCUCAGGAUAUGGUCUGGAUUACAGGCCAGAAGGGAGAACCGUGC [Eli exng3 - 059] (Eterna round: R96, puzzle: Exclusion NG 3) | – | 15.1 nM | 11.8 nM | apparent KD of MS2 coat protein [4]: 10.2 nM
UUUACAAGCUUUUGAUCCCACAUGAGGAUCACCCAUGUUGCUGCCGUGAGGUAGCAUUUAACAAAUGCUCGUCUUAU [JL TOV1 3.54] (Eterna round: R97, puzzle: Sensor, turn-off variant 1) | – | 404 nM | 1380 nM | –
AUUAAUGUCAAAGGAUAUCAGCACGUUUAGUGCUGAGAAGGUUGAACAUGAGGAUCACCCAUGUAGAUCAUUAAUAAUUUAAUU [ENG1/10-B1] (Eterna round: R96, puzzle: Exclusion NG 1) | – | 23.5 nM | 18.2 nM | apparent KD of MS2 coat protein [4]: 18.9 nM
GUGCAACAUGAGGAUCACCCAUGUGAGGAUAUGCGAAUUUCAUCAAAAGAUGAAAUUUGCAGAAGGCACAGCAC [Omei Ex1 A13] (Eterna round: R97, puzzle: Exclusion 1) | – | 20.5 nM | 15.9 nM | –
UGUACUAACACGAGAGUGUUAGUACUAUAAGCUUGUGUUACAUGAGGAUCACCCAUGUCCUCAUAAGCUCGUCUUGA [Mat - Sensor v3 - Turn-off var 2 - D94] (puzzle: Sensor v3, turn-off variant 2) | 285 nM | – | – | apparent KD of MS2 coat protein [1]: 40.4 nM; apparent KD of MS2 coat protein [3]: 34 nM
AAACUCCCAACCACCGGGAACAUGAGGAUCACCCAUGUGGCGUGACUCAUACGGGCUUUUUGUUCGUUUUAUUCACG [Soesesqu] (puzzle: Sensor v3, turn-off variant 1) | 20.1 nM | – | – | apparent KD of MS2 coat protein [1]: 69 nM; apparent KD of MS2 coat protein [3]: 72.5 nM
CUUAUGUGAGGAUAUCAGUAGUGAUACGAUAGUAUUACUGCUGAGAAGGCACAUGAGGAUCACCCAUGUUCCUC [Exclusion 4 - Mod Omei Ex4 344 mod 4 v.2] (puzzle: Exclusion 4) | 91.6 nM | – | – | –
GUGUGGCCUGUAGGAUAUGGUUCCGUUUCGGUUCCAGAAGGACACGAGGAUACAUGAGGAUCACCCAUGUGCUCGUCACUGUGC [salish99_ExNG1_r04_404] (Eterna round: R96, puzzle: Exclusion NG 1) | – | 13.2 nM | 18.2 nM | apparent KD of MS2 coat protein [4]: 11.5 nM
UUAUUAGCAGGAUAUAUCCGGGAUCACAUGAGGAUCACCCAUGUGACCGCUUGAGAUUCUAUAGAAGGGCUUUAUU [Mod of ViennaUCT 32 - Jieux - Exclusion 5] (Eterna round: R97, puzzle: Exclusion 5) | – | 19.6 nM | 18.6 nM | –
GUCGUGUUAGGAUAUGGCAACGGCUAGUAAACUAGUUGUUGUUAGAAGGAACAUGAGGAUCACCCAUGUAUGAC [-24.6, -24.1 kcal, A 30%] (Eterna round: R97, puzzle: Exclusion 4) | – | 98.1 nM | 34.4 nM | –
ACAUGAGGAUCACCCAUGUCCGGCUGGUCUGUUCCGGCUGUCGAGGAUAUAGUCCGGUGUUCGCGCUAGAAGGCGGGAGCUGGA [Aenatbe mod 51] (Eterna round: R96, puzzle: Exclusion NG 3) | – | 67.5 nM | 46.2 nM | apparent KD of MS2 coat protein [4]: 34.5 nM
AAUACAAGCAAGAUCCUAAACAUGAGGAUCACCCAUGUGCUCGUCUUAUAAAGUACUAUCACGAAAGUGAUAGUACA [Sensor 3, v1 - 63] (puzzle: Sensor v3, turn-off variant 1) | 438 nM | – | – | apparent KD of MS2 coat protein [1]: 213 nM; apparent KD of MS2 coat protein [3]: 234 nM
AGUGUGUGGCAGGAUAUGCAAUUUAUAGGUGAAGCAGAAGGGUCUACAUGAGGAUCACCCAUGUGUGCGGUUGA [Ex6 #20] (Eterna round: R97, puzzle: Exclusion 6) | – | 600 nM | 188 nM | –
GGAGGAAAGAUAGGAUAUUAGAGGAAGGUGGUGAUAGAGACAUGAGGAUCACCCAUGUAAGGAGGUAAGAAGGGUCGAGGAGGA [AK ExNG2-V2-6] (Eterna round: R96, puzzle: Exclusion NG 2) | – | 231 nM | 243 nM | apparent KD of MS2 coat protein [4]: 66.5 nM
GCGUGGGCCGCAGGAUAUGAGGCCGUGGGUUCACCCAAACACACAUGAGGAUCACCCAUGUGUCAUCAGAAGGGCGAGCCUACU [Sozasora] (Eterna round: R96, puzzle: Exclusion NG 2) | – | 18.9 nM | 21.4 nM | apparent KD of MS2 coat protein [4]: 17.5 nM
GGAAAACAUGAGGAUCACCCAUGUAAGGAUAUGCAAAAGGAUAUAGAAGGAAAAAAAAGCAGAAGGUACAAAGG [salish99-ex1_r3_094] (puzzle: Exclusion 1) | 36.3 nM | – | – | apparent KD of MS2 coat protein [1]: 132 nM; apparent KD of MS2 coat protein [3]: 32.8 nM
